One experiment has as its target T1, human EpCAM (human, UniProt P16422 24-314).
T1 construct: Endogenous on KATO-III cells and stably expressed on NIH/3T3huEpCAM clone 44 cells; also called huEpCAM; KATO-III cells
T1 sequence: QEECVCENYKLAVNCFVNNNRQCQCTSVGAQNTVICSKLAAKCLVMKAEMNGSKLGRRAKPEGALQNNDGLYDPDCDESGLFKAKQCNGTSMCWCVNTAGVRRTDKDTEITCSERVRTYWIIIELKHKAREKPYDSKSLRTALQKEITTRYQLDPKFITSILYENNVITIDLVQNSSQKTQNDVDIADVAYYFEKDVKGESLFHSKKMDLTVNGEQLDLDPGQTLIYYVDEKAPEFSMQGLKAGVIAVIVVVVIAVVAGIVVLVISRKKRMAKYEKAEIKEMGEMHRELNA
Description: flow cytometry, huEpCAM+ KATO-III cells. Here is the method:
For discrimination of live and dead cells, samples were stained with Zombie Aqua Viability Dye (Biolegend, Cat. No 423102) in PBS for 10 minutes at room temperature. Cells were then washed once with FACS buffer and subsequently stained for 90 minutes at 4° C. in the dark in 50 μL/well 4° C.
Background: In flow cytometry, cells or beads pass a laser one at a time.

For experiment [1], the target named is T2, biotinylated monomeric human OX40 antigen Fc(kih) fusion molecule (human, UniProt P0DOX5 223-449 = IgG part, biotinylated at the C-terminal Avi tag (BirA)).
T2 construct: also called biotinylated human OX40; hu OX40
Kind of experiment: ELISA, biotinylated human OX40 on neutravidin plates, Fab supernatants, anti-Flag/HRP. Here is the method:
Selections were carried out over 3 or 4 rounds using constant antigen concentrations of 100 nM. […] In rounds 2 and 4, in order to avoid enrichment of binders to neutravidin, capture of antigen: phage complexes was performed by addition of 5.4×10⁷ streptavidin-coated magnetic beads. […] Fab-containing bacterial supernatants were added and binding Fabs were detected via their Flag-tags using an anti-Flag/HRP secondary antibody. […] They were bacterially expressed in a 0.5 liter culture volume, affinity purified and further characterized by SPR-analysis using BioRad's ProteOn XPR36 biosensor.

Experiment [2] concerns the target T3, human OX40 (human, UniProt P43489 29-277).
T3 construct: Recombinant on HeLa reporter cells in the NFkB assay; also called huOX40; CD134
T3 sequence: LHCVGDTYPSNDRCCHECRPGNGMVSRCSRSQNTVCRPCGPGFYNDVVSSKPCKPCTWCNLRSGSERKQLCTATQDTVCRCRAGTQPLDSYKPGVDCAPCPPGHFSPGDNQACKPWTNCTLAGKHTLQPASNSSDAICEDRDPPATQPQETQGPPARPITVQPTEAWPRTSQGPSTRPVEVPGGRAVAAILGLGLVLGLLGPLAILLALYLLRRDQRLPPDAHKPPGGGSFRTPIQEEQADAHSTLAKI
Kind of experiment: flow cytometry, activated human OX40+ CD4+ T cells. Here is the method:
(§1) For discrimination of live and dead cells, samples were stained with Zombie Aqua Viability Dye (Biolegend, Cat. No. 423102) in DPBS for 10 minutes at room temperature. […] After three washes with excess FACS buffer, cells were stained for 30 minutes at 4° C. in the dark in 25 μL/well 4° C. FACS buffer containing a mixture of fluorescently labeled anti-human CD4 (clone RPA-T4, mouse IgG1 k, BioLegend, Cat. No. 300532), anti-human CD8 (clone RPa-T8, mouse IgG1k, BioLegend, Cat.-No. 3010441) and Fluorescein isothiocyanate (FITC)-conjugated AffiniPure anti-human IgG Fcγ-fragment-specific goat IgG F(ab′)2 fragment (Jackson ImmunoResearch, Cat. No. 109 096 098).

Experiment [3] deals with T3, human OX40. Description: flow cytometry, activated human OX40+ CD8+ T cells. Here is the method:
as §1

Another experiment addresses T4, murine EpCAM (murine, UniProt Q99JW5 24-315).
T4 construct: Stably expressed on CT26muEpCAM cl25 cells; also called muEpCAM; CT26muEpCAM cells
T4 sequence: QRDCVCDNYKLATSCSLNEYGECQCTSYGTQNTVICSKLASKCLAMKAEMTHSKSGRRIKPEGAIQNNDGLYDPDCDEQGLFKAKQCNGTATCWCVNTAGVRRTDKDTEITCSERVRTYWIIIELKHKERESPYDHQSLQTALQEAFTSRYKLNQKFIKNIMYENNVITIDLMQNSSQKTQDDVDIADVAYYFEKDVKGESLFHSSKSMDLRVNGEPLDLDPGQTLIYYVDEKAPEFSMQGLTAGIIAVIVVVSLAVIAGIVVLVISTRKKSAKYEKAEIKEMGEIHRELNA
Kind of experiment: flow cytometry, muEpCAM+ CT26muEpCAM cells. Here is the method:
(§2) The binding to cell surface murine EpCAM was analysed using mouse EpCAM-positive CT26muEpCAM c125 cells, which stably expresses murine EpCAM. The specificity of binding was analysed by determination of binding to muEpCAM-negative cell line CT26muFAP, which stably expresses murine FAP.
(§3) For analysis of binding of the antigen binding molecules, 0.5×10⁵ CT26muEpCAM or 0.5×10⁵ CT26muFAP cells were added to wells of round-bottomed suspension cell 96-well plates (greiner bio-one, cellstar, Cat. No. 650185). For discrimination of live and dead cells, samples were stained with Zombie Aqua Viability Dye (Biolegend, Cat. No 423102) in PBS for 10 minutes at room temperature. Cells were then washed once with FACS buffer and subsequently stained for 90 minutes at 4° C. in the dark in 50 μL/well 4° C.
(§4) Plates were finally resuspended in 85 μL/well FACS-buffer and acquired the same day using 4-laser LSR-II cytometer (BD Bioscience with DIVA software).

For a further experiment, the target named is T5, murine FAP (murine, UniProt P97321 1-761).
T5 construct: whole, on cells; CT26muFAP served as the muEpCAM-negative specificity control cell line; also called muFAP; CT26muFAP cells
T5 sequence (looked up): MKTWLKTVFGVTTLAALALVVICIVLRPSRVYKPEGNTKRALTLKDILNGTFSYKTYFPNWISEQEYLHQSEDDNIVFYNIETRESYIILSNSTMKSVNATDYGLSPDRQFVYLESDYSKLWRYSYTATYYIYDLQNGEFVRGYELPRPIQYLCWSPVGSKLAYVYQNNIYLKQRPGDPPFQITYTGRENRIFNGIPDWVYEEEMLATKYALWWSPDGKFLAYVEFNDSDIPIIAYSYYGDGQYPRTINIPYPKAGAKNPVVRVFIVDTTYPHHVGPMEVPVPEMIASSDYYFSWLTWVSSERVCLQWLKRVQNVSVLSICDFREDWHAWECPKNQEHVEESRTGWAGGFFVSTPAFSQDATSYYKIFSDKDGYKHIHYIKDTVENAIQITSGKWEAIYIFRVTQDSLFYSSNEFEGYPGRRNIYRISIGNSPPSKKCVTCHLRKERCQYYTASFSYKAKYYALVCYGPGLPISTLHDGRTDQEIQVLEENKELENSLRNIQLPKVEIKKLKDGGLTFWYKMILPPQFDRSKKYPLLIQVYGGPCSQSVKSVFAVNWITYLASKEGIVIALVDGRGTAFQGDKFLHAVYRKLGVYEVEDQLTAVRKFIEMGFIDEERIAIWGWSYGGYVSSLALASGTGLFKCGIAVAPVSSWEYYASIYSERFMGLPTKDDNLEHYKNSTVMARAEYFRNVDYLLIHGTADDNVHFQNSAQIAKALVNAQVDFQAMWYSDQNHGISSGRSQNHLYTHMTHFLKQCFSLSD
Kind of experiment: flow cytometry on CT26muFAP cells, which stably express murine FAP. Here is the method:
as §2, §3, §4

Positions count from the first letter of the chain named. Names may count otherwise.

B1: monospecific, bivalent anti-human EpCAM IgG (parental bivalent anti-human EpCAM antibody, clone 3-17I, Affitech) (antibody, V domains shown)
VH: QVQLVQSGAEVKKPGSSVKVSCKASGGTFSSYAISWVRQAPGQGLEWMGGIIPIFGTANYAQKFQGRVTITADESTSTAYMELSSLRSEDTAVYYCARGLLWNYWGQGTLVTVSS
VL: EIVMTQSPATLSVSPGERATLSCRASQSVSSNLAWYQQKPGQAPRLIIYGASTTASGIPARFSASGSGTDFTLTISSLQSEDFAVYYCQQYNNWPPAYTFGQGTKLEIK
notes: IgG; it was detected with an anti-human IgG secondary; also called huEpCAM IgG; 3-171
In general, EC50 refers to the midpoint of the concentration-response curve. Higher therefore signals a less potent agent. Molecule B1 had an EC50 with human EpCAM of 3.11 nM.

B2: anti-OX40 clone 1G4 (phage-derived Fab) (Fab, V domains shown)
VH: QVQLVQSGAEVKKPGSSVKVSCKASGGTFSSYAISWVRQAPGQGLEWMGGIIPIFGTANYAQKFQGRVTITADKSTSTAYMELSSLRSEDTAVYYCAREYGSMDYWGQGTTVTVSS
VL: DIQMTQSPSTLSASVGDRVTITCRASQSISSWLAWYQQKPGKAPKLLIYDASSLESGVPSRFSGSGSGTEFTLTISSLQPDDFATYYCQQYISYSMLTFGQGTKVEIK
notes: Tested as a Flag-tagged Fab in bacterial supernatant (DP88-4 library); also called OX40 (1G4)
With B2, in experiment [1], the binding result was “binds”.

B3: bispecific, tetravalent anti-human OX40, bivalent anti-human EpCAM 4+2 molecule (OX40 49B4/EpCAM 3-17I P329GLALA 4+2) (bispecific antibody, human IgG1, kappa, L234A L235A)
heavy: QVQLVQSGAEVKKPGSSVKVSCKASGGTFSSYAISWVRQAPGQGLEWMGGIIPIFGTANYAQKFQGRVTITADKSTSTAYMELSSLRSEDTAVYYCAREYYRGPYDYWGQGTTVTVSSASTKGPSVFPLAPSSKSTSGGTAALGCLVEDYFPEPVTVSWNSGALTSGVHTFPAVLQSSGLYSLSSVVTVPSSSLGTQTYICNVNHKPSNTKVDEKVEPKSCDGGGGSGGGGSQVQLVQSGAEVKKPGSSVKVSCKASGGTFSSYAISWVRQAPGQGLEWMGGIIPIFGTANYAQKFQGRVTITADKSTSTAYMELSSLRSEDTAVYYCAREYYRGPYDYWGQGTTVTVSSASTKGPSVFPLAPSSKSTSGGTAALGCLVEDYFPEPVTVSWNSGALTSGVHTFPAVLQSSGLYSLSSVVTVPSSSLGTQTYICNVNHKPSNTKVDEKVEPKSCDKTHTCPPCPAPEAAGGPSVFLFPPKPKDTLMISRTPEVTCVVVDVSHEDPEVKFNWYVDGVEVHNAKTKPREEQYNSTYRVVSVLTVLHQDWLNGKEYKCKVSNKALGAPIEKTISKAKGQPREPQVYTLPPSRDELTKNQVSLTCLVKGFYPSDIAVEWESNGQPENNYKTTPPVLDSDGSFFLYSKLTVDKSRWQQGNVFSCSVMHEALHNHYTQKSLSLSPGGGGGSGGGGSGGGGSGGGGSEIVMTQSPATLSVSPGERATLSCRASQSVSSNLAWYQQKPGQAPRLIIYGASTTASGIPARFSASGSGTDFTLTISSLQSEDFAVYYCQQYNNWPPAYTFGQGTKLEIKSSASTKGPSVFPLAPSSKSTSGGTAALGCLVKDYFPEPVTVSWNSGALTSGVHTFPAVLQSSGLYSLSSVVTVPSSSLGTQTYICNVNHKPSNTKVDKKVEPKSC
light 1: DIQMTQSPSTLSASVGDRVTITCRASQSISSWLAWYQQKPGKAPKLLIYDASSLESGVPSRFSGSGSGTEFTLTISSLQPDDFATYYCQQYSSQPYTFGQGTKVEIKRTVAAPSVFIFPPSDRKLKSGTASVVCLLNNFYPREAKVQWKVDNALQSGNSQESVTEQDSKDSTYSLSSTLTLSKADYEKHKVYACEVTHQGLSSPVTKSFNRGEC
light 2: QVQLVQSGAEVKKPGSSVKVSCKASGGTFSSYAISWVRQAPGQGLEWMGGIIPIFGTANYAQKFQGRVTITADESTSTAYMELSSLRSEDTAVYYCARGLLWNYWGQGTLVTVSSASVAAPSVFIFPPSDEQLKSGTASVVCLLNNFYPREAKVQWKVDNALQSGNSQESVTEQDSKDSTYSLSSTLTLSKADYEKHKVYACEVTHQGLSSPVTKSFNRGEC
notes: huIgG1 P329G LALA, no knob-into-hole; also called 4+2 huEpCAM; 4 + 2 anti-huOX40, anti-huEpCAM
As for B3, the EC50 amounted to 0.01 nM with human OX40 [2] and 0.04 nM with human OX40 [3].

B4: anti-OX40 clone 17A9 (phage-derived Fab) (Fab, V domains shown)
VH: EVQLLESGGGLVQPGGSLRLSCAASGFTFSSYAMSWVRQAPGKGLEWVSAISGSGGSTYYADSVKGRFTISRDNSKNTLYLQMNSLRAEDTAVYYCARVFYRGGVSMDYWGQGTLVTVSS
VL: SSELTQDPAVSVALGQTVRITCQGDSLRSYYASWYQQKPGQAPVLVIYGKNNRPSGIPDRFSGSSSGNTASLTITGAQAEDEADYYCNSRVMPHNRVFGGGTKLTV
notes: Tested as a Flag-tagged Fab in bacterial supernatant (lambda-DP47 library); also called OX40 (17A9)
In the case of B4, the binding result in experiment [1] is “binds”.

B5: anti-OX40 clone 20B7 (phage-derived Fab) (Fab, V domains shown)
VH: QVQLVQSGAEVKKPGSSVKVSCKASGGTFSSYAISWVRQAPGQGLEWMGGIIPIFGTANYAQKFQGRVTITADKSTSTAYMELSSLRSEDTAVYYCARVNYPYSYWGDFDYWGQGTTVTVSS
VL: DIQMTQSPSTLSASVGDRVTITCRASQSISSWLAWYQQKPGKAPKLLIYDASSLESGVPSRFSGSGSGTEFTLTISSLQPDDFATYYCQQYQAFSLTFGQGTKVEIK
notes: Tested as a Flag-tagged Fab in bacterial supernatant (DP88-4 library); also called OX40 (20B7)
As for B5, the binding result in experiment [1] is listed as “binds”.

B6: anti-OX40 clone 49B4 (phage-derived Fab) (Fab, V domains shown)
VH: QVQLVQSGAEVKKPGSSVKVSCKASGGTFSSYAISWVRQAPGQGLEWMGGIIPIFGTANYAQKFQGRVTITADKSTSTAYMELSSLRSEDTAVYYCAREYYRGPYDYWGQGTTVTVSS
VL: B5 VL with Q92S, A93S, F94Q, S95P, L96Y
notes: Tested as a Flag-tagged Fab in bacterial supernatant (DP88-4 library); also called OX40 (49B4)
On to B6, for which the binding result in experiment [1] is on record as “binds”.

B7: monospecific, bivalent anti-murine EpCAM IgG (parental bivalent anti-muEpCAM antibody) (antibody, V domains shown)
VH: EVQLAESGGGLVQPGRSMKLSCAASGFTFSNFPMAWVRQAPTKGLEWVATISTSGGSTYYRDSVKGRFTISRDNAKSTLYLQMNSLRSEDTATYYCTRTLYILRVFYFDYWGQGVMVTVSS
VL: DIQMTQSPASLSASLGETVSIECLASEGISNDLAWYQQKSGKSPQLLIYATSRLQDGVPSRFSGSGSGTRYSLKISGMQPEDEADYFCQQSYKYPWTFGGGTKLELK
notes: it was detected with anti-mouse IgG Fc; also called muEpCAM IgG; G8.8
The molecule B7 came in with an EC50 with murine EpCAM of 2.87 nM. Further, the binding result with murine FAP is “no binding”.

Source of the values: patent publication US20200231691A1 (Hoffmann-La Roche, published 2020).
